Source: paper PMC9889658, “The structure of MadC from Clostridium maddingley reveals new insights into class I lanthipeptide cyclases” (Frontiers in Microbiology, 2022)

Columns and labels:
Details in all cases: both partners purified
[1] = biological target: T1, MadC (lanthionine cyclase of Clostridium sp. maddingley), His6-tag cleaved off (Clostridium sp. maddingley); assay: ITC; MadC (200–600 μM) in the syringe, 20 injections of 2 μl into the cell with the leader variant (20–60 μM); 25°C; 50 mM HEPES, 500 mM NaCl, pH 7.5; at least triplicate
T1 construct: MadC, class I lanthipeptide cyclase, Clostridium sp. maddingley, NCBI EKQ50560.1, synthetic gene from GenScript in pET28b(+); calculated molecular weight 49.71 kDa; also called cleaved MadC; class I cyclase MadC; not shown: His6, N-terminal, cleaved

[2] = biological target: T1, MadC (lanthionine cyclase of …); assay: as above; remark: listed apart in the source
[3] = biological target: T2, His6-MadC (hexa-histidine tagged cyclase MadC, wild type) (Clostridium sp. maddingley); assay: SPR; His6-MadC variant captured on a poly-NTA (Ni2+) chip to 400–500 RU; L3 injected at 180 nM to 30 μM; 200 mM NaCl, 50 mM HEPES/NaOH pH 8; affinity from the maximum RU values
T2 construct: MadC, class I lanthipeptide cyclase, Clostridium sp. maddingley, NCBI EKQ50560.1, in pET28b(+) with N-terminal His6-tag and thrombin cleavage site; Thrombin cleavage site between the tag and MadC; Captured by the His-tag on the Ni-NTA chip in SPR; also the crystallised form (PDB 8BYK); also called wild-type MadC; not shown: His6, N-terminal, kept

B1: maddinglicin leader peptide construct madL1, Leader 1 (−23 – −1) (peptide)
chain: MGKLDDFDLDVKVKADTTKVGPA
- Kd [1]: 10.5 ± 4.3 µM
- Kd [2]: 10.4 µM

B2: maddinglicin leader peptide construct madL3, Leader 3 (−23 − +10) (peptide)
chain: MGKLDDFDLDVKVKADTTKVGPAITSKSLCTPG
modifications: synthetic, unmodified peptide (no lanthionine rings); MadA 1-33 from Table S4
- Kd [3]: 16 ± 7 µM
- Kd [2]: 5.69 µM

B3: maddinglicin leader peptide construct madL2, Leader 2 (−23 − +5) (peptide)
chain: MGKLDDFDLDVKVKADTTKVGPAITSKS
- Kd [2]: 9.35 µM
